Consider two molecules from US20040102610A1 (Genentech, published 2004).

Data set [1] addresses T1, GST-hSu(fu) (UniProt Q9UMX1).
T1 sequence: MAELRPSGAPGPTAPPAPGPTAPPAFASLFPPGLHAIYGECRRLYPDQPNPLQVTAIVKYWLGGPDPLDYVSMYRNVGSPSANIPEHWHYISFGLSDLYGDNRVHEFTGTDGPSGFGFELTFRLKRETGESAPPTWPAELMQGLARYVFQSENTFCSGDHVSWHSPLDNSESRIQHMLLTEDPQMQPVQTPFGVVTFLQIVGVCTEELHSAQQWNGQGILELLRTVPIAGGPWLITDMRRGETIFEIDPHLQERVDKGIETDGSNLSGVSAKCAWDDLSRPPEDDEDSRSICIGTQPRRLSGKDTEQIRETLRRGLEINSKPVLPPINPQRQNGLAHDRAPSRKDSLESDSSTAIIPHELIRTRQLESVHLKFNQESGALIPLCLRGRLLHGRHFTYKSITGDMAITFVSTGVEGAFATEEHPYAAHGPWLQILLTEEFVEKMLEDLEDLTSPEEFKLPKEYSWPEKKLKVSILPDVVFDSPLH

Data set [2] deals with T2, hfused C-Flag (human, UniProt Q9NRP7 1-1315).
T2 construct: also called human fused C-Flag
T2 sequence: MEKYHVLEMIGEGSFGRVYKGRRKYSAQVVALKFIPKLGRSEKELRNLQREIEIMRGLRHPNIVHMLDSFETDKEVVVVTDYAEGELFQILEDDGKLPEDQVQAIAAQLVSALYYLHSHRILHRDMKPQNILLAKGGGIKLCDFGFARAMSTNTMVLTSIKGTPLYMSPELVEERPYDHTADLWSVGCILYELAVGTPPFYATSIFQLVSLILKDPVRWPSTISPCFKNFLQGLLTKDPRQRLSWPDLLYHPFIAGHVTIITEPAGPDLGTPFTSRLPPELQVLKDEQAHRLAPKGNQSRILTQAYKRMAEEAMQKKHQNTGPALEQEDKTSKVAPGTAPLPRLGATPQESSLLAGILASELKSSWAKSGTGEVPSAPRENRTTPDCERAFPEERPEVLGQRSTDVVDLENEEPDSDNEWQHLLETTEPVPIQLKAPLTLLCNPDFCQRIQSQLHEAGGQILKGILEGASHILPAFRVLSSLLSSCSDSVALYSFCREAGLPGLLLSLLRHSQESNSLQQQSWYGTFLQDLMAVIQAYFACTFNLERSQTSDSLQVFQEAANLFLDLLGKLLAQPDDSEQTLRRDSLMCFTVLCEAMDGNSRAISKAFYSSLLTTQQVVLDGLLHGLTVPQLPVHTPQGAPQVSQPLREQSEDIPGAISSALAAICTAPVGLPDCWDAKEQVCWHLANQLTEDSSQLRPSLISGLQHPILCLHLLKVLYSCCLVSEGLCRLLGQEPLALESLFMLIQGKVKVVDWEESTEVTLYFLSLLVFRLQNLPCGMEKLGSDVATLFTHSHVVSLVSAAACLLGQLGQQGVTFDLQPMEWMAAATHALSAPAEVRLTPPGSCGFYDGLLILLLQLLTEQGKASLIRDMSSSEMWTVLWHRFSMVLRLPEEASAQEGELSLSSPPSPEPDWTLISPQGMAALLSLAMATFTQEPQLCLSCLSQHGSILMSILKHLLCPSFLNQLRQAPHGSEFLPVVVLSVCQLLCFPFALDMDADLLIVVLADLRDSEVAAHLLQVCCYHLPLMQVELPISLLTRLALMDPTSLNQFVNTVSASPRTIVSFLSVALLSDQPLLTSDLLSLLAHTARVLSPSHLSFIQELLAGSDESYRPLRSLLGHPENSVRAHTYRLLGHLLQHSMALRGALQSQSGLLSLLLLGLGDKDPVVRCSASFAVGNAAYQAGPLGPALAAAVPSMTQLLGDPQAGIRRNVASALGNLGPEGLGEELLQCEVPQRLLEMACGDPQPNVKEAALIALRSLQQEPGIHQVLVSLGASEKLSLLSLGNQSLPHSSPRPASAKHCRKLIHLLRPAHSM
Kind of data set: 293 cells, anti-Myc or anti-Flag IP, immunoblot. An excerpt: (§1) FIG. 14 describes the biochemical interaction of hFu, hSu(fu) and hGli-1. FIG. 14(A) depicts the interaction of hFu with hSu(fu) in mammalian cells. 293 cells were transfected with hfused and hSu(fu) C-Flag or hfused C-Flag and hSu(fu) C-Myc either alone or in combination. Cell lysates were subjected to anti-Flag immunoprecipitation, and co-precipitating proteins were detected by immunoblotting. FIG. 14(B) depicts the interaction of hfused with hGli-1 in mammalian cells. 293 cells were transfected with hfused C-Flag or N-Myc hGli-1 both alone or in combination, and immunoprecipitated with anti-Myc or anti-Flag antibodies. Proteins were detected by immunoblotting. […] 293 cells were transfected with N-Myc hGli-1, hSu(fu) C-Flag and increasing amounts of hfused. The amount of hfused and hSu(fu) bound to hGli-1 was determined by anti-Myc immunoprecipitation and immunoblotting. Protein expression was analyzed by immunoblotting aliquots of total cell lysates (bottom panel).
(§2) For immunoprecipitation experiments human embryonic kidney 293 cells or C3H10T1/2 cells (ATCC 226-CCL) were transiently transfected with the various expression plasmids in 10 cm plates with lipofectamine (Gibco […]). For every transfection, the total amount of DNA was normalized with an expression plasmid encoding EGFP. […]

For data set [3], the target named is T3, human fused (human, UniProt Q9NRP7 1-1315).
T3 construct: The same id is used for endogenous human fused of 293 cells in the GST-hSu(fu) pull-down; also called hfused; hFu
T3 sequence: T2 sequence
Kind of data set: FIG. 14C: 293 cells transfected with N-Myc hGli-1, hSu(fu) C-Flag and increasing amounts of hfused.
Source text: as §1, §2

For the molecule purified PKAc (Upstate biotechnology), in data set [1], the “in vitro kinase assay with [γ-32P]ATP” value is “when tested in vitro, GST-hSu(fu) was highly phosphorylated by purified PKAc”.

B1: N-Myc hGli-1 (other, human, UniProt P08151 1-1106, looked up, not shown: small tags and cut ends)
chain: MFNSMTPPPISSYGEPCCLRPLPSQGAPSVGTEGLSGPPFCHQANLMSGPHSYGPARETNSCTEGPLFSSPRSAVKLTKKRALSISPLSDASLDLQTVIRTSPSSLVAFINSRCTSPGGSYGHLSIGTMSPSLGFPAQMNHQKGPSPSFGVQPCGPHDSARGGMIPHPQSRGPFPTCQLKSELDMLVGKCREEPLEGDMSSPNSTGIQDPLLGMLDGREDLEREEKREPESVYETDCRWDGCSQEFDSQEQLVHHINSEHIHGERKEFVCHWGGCSRELRPFKAQYMLVVHMRRHTGEKPHKCTFEGCRKSYSRLENLKTHLRSHTGEKPYMCEHEGCSKAFSNASDRAKHQNRTHSNEKPYVCKLPGCTKRYTDPSSLRKHVKTVHGPDAHVTKRHRGDGPLPRAPSISTVEPKREREGGPIREESRLTVPEGAMKPQPSPGAQSSCSSDHSPAGSAANTDSGVEMTGNAGGSTEDLSSLDEGPCIAGTGLSTLRRLENLRLDQLHQLRPIGTRGLKLPSLSHTGTTVSRRVGPPVSLERRSSSSSSISSAYTVSRRSSLASPFPPGSPPENGASSLPGLMPAQHYLLRARYASARGGGTSPTAASSLDRIGGLPMPPWRSRAEYPGYNPNAGVTRRASDPAQAADRPAPARVQRFKSLGCVHTPPTVAGGGQNFDPYLPTSVYSPQPPSITENAAMDARGLQEEPEVGTSMVGSGLNPYMDFPPTDTLGYGGPEGAAAEPYGARGPGSLPLGPGPPTNYGPNPCPQQASYPDPTQETWGEFPSHSGLYPGPKALGGTYSQCPRLEHYGQVQVKPEQGCPVGSDSTGLAPCLNAHPSEGPPHPQPLFSHYPQPSPPQYLQSGPYTQPPPDYLPSEPRPCLDFDSPTHSTGQLKAQLVCNYVQSQQELLWEGGGREDAPAQEPSYQSPKFLGGSQVSPSRAKAPVNTYGPGFGPNLPNHKSGSYPTPSPCHENFVVGANRASHRAAAPPRLLPPLPTCYGPLKVGGTNPSCGHPEVGRLGGGPALYPPPEGQVCNPLDSLDLDNTQLDFVAILDEPQGLSPPPSHDQRGSSGHTPPPSGPPNMAVGNMSVLLRSLPGETEFLNSSA
notes: Expressed in C3H10T1/2 or 293 cells; also called human Gli-1
B1: the binding result in data set [2] and in data set [3] was “binds” each time.
